Test results: paper PMC5907806 (Nature, 2017)
Where a chain is given by its changes, count along the chain named. Like-named read-outs stand apart in the source and are kept apart here.

Legend:
[1] = molecular target: Rpb2 subunit of S. cerevisiae RNA polymerase II (S. cerevisiae, UniProt P08518 1-1224); test: cryo-EM structure
[2] = molecular target: T1, RNA polymerase II (12-subunit);Rad26 (Saccharomyces cerevisiae;Saccharomyces …, UniProt P04050;P08518;P16370;P20433;P20434;P20435;P34087;P20436;P27999;P22139;P38902;P40 …, |); test: EMSA
[3] = molecular target: T1, RNA polymerase II (12-subunit);Rad26; test: EMSA; remark: listed apart in the source
[4] = molecular target: T1, RNA polymerase II (12-subunit);Rad26; test: EMSA; remark: listed apart in the source
[5] = molecular target: T1, RNA polymerase II (12-subunit);Rad26; test: EMSA; remark: listed apart in the source
[6] = molecular target: T1, RNA polymerase II (12-subunit);Rad26; test: EMSA; remark: listed apart in the source
[7] = molecular target: T1, RNA polymerase II (12-subunit);Rad26; test: EMSA; remark: listed apart in the source

Rpb2 subunit of S. cerevisiae RNA polymerase II, sequence (P08518 whole entry): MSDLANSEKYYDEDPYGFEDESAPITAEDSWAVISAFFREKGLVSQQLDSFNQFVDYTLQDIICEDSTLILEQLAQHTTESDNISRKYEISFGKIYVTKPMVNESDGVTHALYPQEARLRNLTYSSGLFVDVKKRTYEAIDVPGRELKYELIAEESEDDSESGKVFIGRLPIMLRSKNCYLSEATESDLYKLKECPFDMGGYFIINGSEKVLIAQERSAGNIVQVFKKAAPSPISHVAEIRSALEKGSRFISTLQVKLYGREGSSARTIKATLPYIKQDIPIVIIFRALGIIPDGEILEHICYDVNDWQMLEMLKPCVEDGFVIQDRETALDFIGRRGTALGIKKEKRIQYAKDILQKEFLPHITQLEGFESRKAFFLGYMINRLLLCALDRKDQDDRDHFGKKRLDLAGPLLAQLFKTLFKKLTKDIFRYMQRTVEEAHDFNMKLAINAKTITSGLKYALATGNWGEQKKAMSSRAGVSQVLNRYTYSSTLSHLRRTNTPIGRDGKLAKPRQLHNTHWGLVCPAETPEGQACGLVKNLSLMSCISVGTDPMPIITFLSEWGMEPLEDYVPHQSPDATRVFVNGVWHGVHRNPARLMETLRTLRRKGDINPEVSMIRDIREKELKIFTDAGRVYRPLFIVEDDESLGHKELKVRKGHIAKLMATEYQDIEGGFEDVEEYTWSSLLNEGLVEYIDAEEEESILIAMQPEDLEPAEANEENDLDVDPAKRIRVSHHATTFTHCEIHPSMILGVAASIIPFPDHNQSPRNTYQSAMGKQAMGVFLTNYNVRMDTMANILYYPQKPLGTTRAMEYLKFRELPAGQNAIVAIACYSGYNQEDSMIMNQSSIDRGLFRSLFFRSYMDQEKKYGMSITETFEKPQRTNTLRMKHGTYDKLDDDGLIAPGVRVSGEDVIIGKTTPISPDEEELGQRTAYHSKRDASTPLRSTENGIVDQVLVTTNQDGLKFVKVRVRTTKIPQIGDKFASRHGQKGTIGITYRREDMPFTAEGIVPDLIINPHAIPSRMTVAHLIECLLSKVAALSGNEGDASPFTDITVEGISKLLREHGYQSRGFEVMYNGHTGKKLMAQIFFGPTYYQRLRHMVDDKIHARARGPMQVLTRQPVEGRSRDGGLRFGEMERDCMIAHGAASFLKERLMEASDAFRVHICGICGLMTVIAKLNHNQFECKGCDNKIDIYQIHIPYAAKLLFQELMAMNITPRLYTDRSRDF

B1: Saccharomyces cerevisiae Rad26 (natural protein, S. cerevisiae, UniProt P40352 1-1085, looked up)
chain: MEDKEQQDNAKLENNESLKDLGVNVLSQSSLEEKIANDVTNFSNLQSLQQEETRLERSKTALQRYVNKKNHLTRKLNNTTRISVKQNLRDQIKNLQSDDIERVLKDIDDIQSRIKELKEQVDQGAENKGSKEGLQRPGETEKEFLIRTGKITAFGHKAGFSLDTANREYAKNDEQKDEDFEMATEQMVENLTDEDDNLSDQDYQMSGKESEDDEEEENDDKILKELEDLRFRGQPGEAKDDGDELYYQERLKKWVKQRSCGSQRSSDLPEWRRPHPNIPDAKLNSQFKIPGEIYSLLFNYQKTCVQWLYELYQQNCGGIIGDEMGLGKTIQVIAFIAALHHSGLLTGPVLIVCPATVMKQWCNEFQHWWPPLRTVILHSMGSGMASDQKFKMDENDLENLIMNSKPSDFSYEDWKNSTRTKKALESSYHLDKLIDKVVTDGHILITTYVGLRIHSDKLLKVKWQYAVLDEGHKIRNPDSEISLTCKKLKTHNRIILSGTPIQNNLTELWSLFDFIFPGKLGTLPVFQQQFVIPINIGGYANATNIQVQTGYKCAVALRDLISPYLLRRVKADVAKDLPQKKEMVLFCKLTKYQRSKYLEFLHSSDLNQIQNGKRNVLFGIDILRKICNHPDLLDRDTKRHNPDYGDPKRSGKMQVVKQLLLLWHKQGYKALLFTQSRQMLDILEEFISTKDPDLSHLNYLRMDGTTNIKGRQSLVDRFNNESFDVFLLTTRVGGLGVNLTGANRIIIFDPDWNPSTDMQARERAWRIGQKREVSIYRLMVGGSIEEKIYHRQIFKQFLTNRILTDPKQKRFFKIHELHDLFSLGGENGYSTEELNEEVQKHTENLKNSKSEESDDFEQLVNLSGVSKLESFYNGKEKKENSKTEDDRLIEGLLGGESNLETVMSHDSVVNSHAGSSSSNIITKEASRVAIEAVNALRKSRKKITKQYEIGTPTWTGRFGKAGKIRKRDPLKNKLTGSAAILGNITKSQKEASKEARQENYDDGITFARSKEINSNTKTLENIRAYLQKQNNFFSSSVSILNSIGVSLSDKEDVIKVRALLKTIAQFDKERKGWVLDEEFRNNNAS
binding result [1]: binds

B2: non-damaged TT scaffold (mixed)
DNA 1: CGAGCAGATCTCATAGCCCATTCCTACTAAGGAGAAGGAGCAGAGCG
DNA 2: CGCTCTGCTCCTTCTCCTTTCCTCTCGATGGCTATGAGATCTGCTCG
RNA: AUCGAGAGGA
binding result [2]: binds

B3: CPD lesion scaffold (mixed)
DNA 1: B2 DNA 1
DNA 2: B2 DNA 2
RNA: AUCGAGAGGA
modifications: CPD at TT of TS (nt 18-19)
binding result [3]: binds

B4: 3+10 bubble scaffold (mixed)
DNA 1: B2 DNA 1 with G16T, C17T, C18T, A29T, A30G
DNA 2: B2 DNA 2 with T18C, T19A
RNA: AUCGAGAGGA
binding result [4]: binds

B5: 10+3 bubble scaffold (mixed)
DNA 1: B2 DNA 1 with A29C, G31T
DNA 2: B2 DNA 2 with T18C, T19A
RNA: AUCGAGAGGA
binding result [5]: binds

B6: 3+10+3 bubble scaffold (mixed)
DNA 1: B2 DNA 1 with G16T, C17T, C18T, A29C, G31T
DNA 2: B2 DNA 2 with T18C, T19A
RNA: AUCGAGAGGA
binding result [6]: binds

B7: AT-rich upstream fork scaffold (mixed)
DNA 1: B2 DNA 1 with G16T, C17T, C18T, A29T, A30G
DNA 2: B2 DNA 2 with T18C, T19A, G30A, G31A, C32A
RNA: AUCGAGAGGA
binding result [7]: binds
